Measured values taken from US5807943A, “Synthesis of glycopolymers” (Johns Hopkins University, priority 1997, dated 1998).

Key:
serum-MBP-CRD = target: T1, serum-MBP-CRD (Rattus norvegicus, UniProt P19999); assay: Solid-phase binding assay, inhibition of 125I-[mannose30-BSA] binding to serum MBP-CRD; conditions: in the concentration range of SBA tested
T1 construct: Recombinant rat MBP-CRDs from serum and liver were expressed and purified; made in house; host or cells: bacteria (expression plasmid-bearing bacterial strains, gift of Dr. Kurt Drickamer)
Experimental: (§1) Glycoamidase A was from Seikagaku America, Inc. (Rockville, Md.). GlcNAc was purchased from Pfanstiehl Laboratories, Inc. (Waukegan, Ill.). 3-(N-acryloylamino)-propyl β-D-GlcNAc (GlcNAc-NAP) and GlcNAc-O-(CH2)3CH=CH2 were gifts from Dr. Shin-Ichiro Nishimura of Hokkaido University, Japan.
(§2) All steps were carried out at 4° C. Briefly, CRD (50 μl) was coated onto individual polystyrene wells (Immulon 4 Removawell Strips by Dynatech, from Fisher Scientific). […] Ligands and inhibitors were in 0.5% BSA in the above Tris buffer for binding and inhibition. […] The well contents were then removed, washed, and counted in a Packard Minaxi gamma counter.

liver-MBP-CRD = target: T2, liver-MBP-CRD (Rattus norvegicus, UniProt P08661); assay: Solid-phase binding assay, inhibition of 125I-[mannose30-BSA] binding to liver MBP-CRD
T2 construct: Recombinant rat MBP-CRDs from serum and liver were expressed and purified; made in house; host or cells: bacteria (expression plasmid-bearing bacterial strains, gift of Dr. Kurt Drickamer)
T2 sequence (P08661 129-241 limits assumed): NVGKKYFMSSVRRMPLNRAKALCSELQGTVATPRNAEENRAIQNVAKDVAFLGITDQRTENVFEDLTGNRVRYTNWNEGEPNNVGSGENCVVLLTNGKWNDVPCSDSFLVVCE
Experimental: as §1, §2

soybean agglutinin [SBA] was tested, and the “inhibition of the serum-MBP-CRD (in words)” value (serum-MBP-CRD) was “no significant inhibition”, the IC50 (liver-MBP-CRD; concentration based on Man9 GlcNAc2, 4° C., 20 hr incubation, read-out: I50 for the liver-MBP-CRD) was 13.2 µM and the “I50 for the liver-MBP-CRD” value (liver-MBP-CRD; expressed as mg/ml of SBA) was 0.4 mg/mL.
